B1: Porcine T286E (antibody, part only; not given: variable domains and light chain, IgG1a, not shown: another chain or arm of the molecule)
Fc: GCEVAGPSVFIFPPKPKDTLMISQTPEVTCVVVDVSKEHAEVQFSWYVDGVEVHEAETRPKEEQFNSTYRVVSVLPIQHQDWLKGKEFKCKVNNVDLPAPITRTISKAIGQSREPQVYTLPPPAEELSRSKVTVTCLVIGFYPPDIHVEWKSNGQPEPEGNYRTTPPQQDVDGTFFLYSKLAVDKARWDHGETFECAVMHEALHNHYTQKSISKTQGK
B2: Porcine Q309D (antibody, part only; not given: variable domains and light chain, IgG1a, not shown: another chain or arm of the molecule)
Fc: GCEVAGPSVFIFPPKPKDTLMISQTPEVTCVVVDVSKEHAEVQFSWYVDGVEVHTAETRPKEEQFNSTYRVVSVLPIDHQDWLKGKEFKCKVNNVDLPAPITRTISKAIGQSREPQVYTLPPPAEELSRSKVTVTCLVIGFYPPDIHVEWKSNGQPEPEGNYRTTPPQQDVDGTFFLYSKLAVDKARWDHGETFECAVMHEALHNHYTQKSISKTQGK
B3: Porcine Q311V (antibody, part only; not given: variable domains and light chain, IgG1a, not shown: another chain or arm of the molecule)
Fc: GCEVAGPSVFIFPPKPKDTLMISQTPEVTCVVVDVSKEHAEVQFSWYVDGVEVHTAETRPKEEQFNSTYRVVSVLPIQHVDWLKGKEFKCKVNNVDLPAPITRTISKAIGQSREPQVYTLPPPAEELSRSKVTVTCLVIGFYPPDIHVEWKSNGQPEPEGNYRTTPPQQDVDGTFFLYSKLAVDKARWDHGETFECAVMHEALHNHYTQKSISKTQGK
B4: Porcine M428Y (antibody, part only; not given: variable domains and light chain, IgG1a, not shown: another chain or arm of the molecule)
Fc: GCEVAGPSVFIFPPKPKDTLMISQTPEVTCVVVDVSKEHAEVQFSWYVDGVEVHTAETRPKEEQFNSTYRVVSVLPIQHQDWLKGKEFKCKVNNVDLPAPITRTISKAIGQSREPQVYTLPPPAEELSRSKVTVTCLVIGFYPPDIHVEWKSNGQPEPEGNYRTTPPQQDVDGTFFLYSKLAVDKARWDHGETFECAVYHEALHNHYTQKSISKTQGK
B5: Porcine Q309V (antibody, part only; not given: variable domains, light chain, IgG1a, not shown: another chain or arm of the molecule)
Fc: GCEVAGPSVFIFPPKPKDTLMISQTPEVTCVVVDVSKEHAEVQFSWYVDGVEVHTAETRPKEEQFNSTYRVVSVLPIVHQDWLKGKEFKCKVNNVDLPAPITRTISKAIGQSREPQVYTLPPPAEELSRSKVTVTCLVIGFYPPDIHVEWKSNGQPEPEGNYRTTPPQQDVDGTFFLYSKLAVDKARWDHGETFECAVMHEALHNHYTQKSISKTQGK
B6: Porcine A426Y (antibody, part only; not given: variable domains, light chain, IgG1a, not shown: another chain or arm of the molecule)
Fc: GCEVAGPSVFIFPPKPKDTLMISQTPEVTCVVVDVSKEHAEVQFSWYVDGVEVHTAETRPKEEQFNSTYRVVSVLPIQHQDWLKGKEFKCKVNNVDLPAPITRTISKAIGQSREPQVYTLPPPAEELSRSKVTVTCLVIGFYPPDIHVEWKSNGQPEPEGNYRTTPPQQDVDGTFFLYSKLAVDKARWDHGETFECYVMHEALHNHYTQKSISKTQGK
B7: Porcine N434Y (antibody, part only; not given: variable domains and light chain, IgG1a, not shown: another chain or arm of the molecule)
Fc: GCEVAGPSVFIFPPKPKDTLMISQTPEVTCVVVDVSKEHAEVQFSWYVDGVEVHTAETRPKEEQFNSTYRVVSVLPIQHQDWLKGKEFKCKVNNVDLPAPITRTISKAIGQSREPQVYTLPPPAEELSRSKVTVTCLVIGFYPPDIHVEWKSNGQPEPEGNYRTTPPQQDVDGTFFLYSKLAVDKARWDHGETFECAVMHEALHYHYTQKSISKTQGK
B8: Porcine M252Y (antibody, part only; not given: variable domains and light chain, IgG1a, not shown: another chain or arm of the molecule)
Fc: GCEVAGPSVFIFPPKPKDTLYISQTPEVTCVVVDVSKEHAEVQFSWYVDGVEVHTAETRPKEEQFNSTYRVVSVLPIQHQDWLKGKEFKCKVNNVDLPAPITRTISKAIGQSREPQVYTLPPPAEELSRSKVTVTCLVIGFYPPDIHVEWKSNGQPEPEGNYRTTPPQQDVDGTFFLYSKLAVDKARWDHGETFECAVMHEALHNHYTQKSISKTQGK
B9: Bovine wild-type (antibody, part only; not given: variable domains, light chain, IgG1, not shown: another chain or arm of the molecule)
Fc: PPELPGGPSVFIFPPKPKDTLTISGTPEVTCVVVDVGHDDPEVKFSWFVDNVEVNTATTKPREEQFNSTYRVVSALRIQHQDWTGGKEFKCKVHNEGLPAPIVRTISRTKGPAREPQVYVLAPPQEELSKSTVSLTCMVTSFYPDYIAVEWQRNGQPESEDKYGTTPPQLDADSSYFLYSKLRVDRNSWQEGDTYTCVVMHEALHNHYTQKSTSKSA
B10: Bovine Q309V (antibody, part only; not given: variable domains, light chain, IgG1, not shown: another chain or arm of the molecule)
Fc: PPELPGGPSVFIFPPKPKDTLTISGTPEVTCVVVDVGHDDPEVKFSWFVDNVEVNTATTKPREEQFNSTYRVVSALRIVHQDWTGGKEFKCKVHNEGLPAPIVRTISRTKGPAREPQVYVLAPPQEELSKSTVSLTCMVTSFYPDYIAVEWQRNGQPESEDKYGTTPPQLDADSSYFLYSKLRVDRNSWQEGDTYTCVVMHEALHNHYTQKSTSKSA
B11: Bovine Q311V (antibody, part only; not given: variable domains and light chain, IgG1, not shown: another chain or arm of the molecule)
Fc: PPELPGGPSVFIFPPKPKDTLTISGTPEVTCVVVDVGHDDPEVKFSWFVDNVEVNTATTKPREEQFNSTYRVVSALRIQHVDWTGGKEFKCKVHNEGLPAPIVRTISRTKGPAREPQVYVLAPPQEELSKSTVSLTCMVTSFYPDYIAVEWQRNGQPESEDKYGTTPPQLDADSSYFLYSKLRVDRNSWQEGDTYTCVVMHEALHNHYTQKSTSKSA
B12: Bovine T252Y (antibody, part only; not given: variable domains and light chain, IgG1, not shown: another chain or arm of the molecule)
Fc: PPELPGGPSVFIFPPKPKDTLYISGTPEVTCVVVDVGHDDPEVKFSWFVDNVEVNTATTKPREEQFNSTYRVVSALRIQHQDWTGGKEFKCKVHNEGLPAPIVRTISRTKGPAREPQVYVLAPPQEELSKSTVSLTCMVTSFYPDYIAVEWQRNGQPESEDKYGTTPPQLDADSSYFLYSKLRVDRNSWQEGDTYTCVVMHEALHNHYTQKSTSKSA
B13: Equine Q311V (antibody, part only; not given: variable domains and light chain, IgG1, not shown: another chain or arm of the molecule)
Fc: APELLGGPSVFIFPPNPKDTLMITRTPEVTCVVVDVSQENPDVKFNWYMDGVEVRTATTRPKEEQFNSTYRVVSVLRIQHVDWLSGKEFKCKVNNQALPQPIERTITKTKGRSQEPQVYVLAPHPDELSKSKVSVTCLVKDFYPPEINIEWQSNGQPELETKYSTTQAQQDSDGSYFLYSKLSVDRNRWQQGTTFTCGVMHEALHNHYTQKNVSKNPGK
B14: Equine T286E (antibody, part only; not given: variable domains and light chain, IgG1, not shown: another chain or arm of the molecule)
Fc: APELLGGPSVFIFPPNPKDTLMITRTPEVTCVVVDVSQENPDVKFNWYMDGVEVREATTRPKEEQFNSTYRVVSVLRIQHQDWLSGKEFKCKVNNQALPQPIERTITKTKGRSQEPQVYVLAPHPDELSKSKVSVTCLVKDFYPPEINIEWQSNGQPELETKYSTTQAQQDSDGSYFLYSKLSVDRNRWQQGTTFTCGVMHEALHNHYTQKNVSKNPGK
B15: Equine N434Y (antibody, part only; not given: variable domains and light chain, IgG1, not shown: another chain or arm of the molecule)
Fc: APELLGGPSVFIFPPNPKDTLMITRTPEVTCVVVDVSQENPDVKFNWYMDGVEVRTATTRPKEEQFNSTYRVVSVLRIQHQDWLSGKEFKCKVNNQALPQPIERTITKTKGRSQEPQVYVLAPHPDELSKSKVSVTCLVKDFYPPEINIEWQSNGQPELETKYSTTQAQQDSDGSYFLYSKLSVDRNRWQQGTTFTCGVMHEALHYHYTQKNVSKNPGK
B16: Equine Q309V (antibody, part only; not given: variable domains, light chain, IgG1, not shown: another chain or arm of the molecule)
Fc: APELLGGPSVFIFPPNPKDTLMITRTPEVTCVVVDVSQENPDVKFNWYMDGVEVRTATTRPKEEQFNSTYRVVSVLRIVHQDWLSGKEFKCKVNNQALPQPIERTITKTKGRSQEPQVYVLAPHPDELSKSKVSVTCLVKDFYPPEINIEWQSNGQPELETKYSTTQAQQDSDGSYFLYSKLSVDRNRWQQGTTFTCGVMHEALHNHYTQKNVSKNPGK
B17: Equine M252Y (antibody, part only; not given: variable domains, light chain, IgG1, not shown: another chain or arm of the molecule)
Fc: APELLGGPSVFIFPPNPKDTLYITRTPEVTCVVVDVSQENPDVKFNWYMDGVEVRTATTRPKEEQFNSTYRVVSVLRIQHQDWLSGKEFKCKVNNQALPQPIERTITKTKGRSQEPQVYVLAPHPDELSKSKVSVTCLVKDFYPPEINIEWQSNGQPELETKYSTTQAQQDSDGSYFLYSKLSVDRNRWQQGTTFTCGVMHEALHNHYTQKNVSKNPGK
B18: Equine M428Y (antibody, part only; not given: variable domains, light chain, IgG1, not shown: another chain or arm of the molecule)
Fc: APELLGGPSVFIFPPNPKDTLMITRTPEVTCVVVDVSQENPDVKFNWYMDGVEVRTATTRPKEEQFNSTYRVVSVLRIQHQDWLSGKEFKCKVNNQALPQPIERTITKTKGRSQEPQVYVLAPHPDELSKSKVSVTCLVKDFYPPEINIEWQSNGQPELETKYSTTQAQQDSDGSYFLYSKLSVDRNRWQQGTTFTCGVYHEALHNHYTQKNVSKNPGK
B19: Equine Q309D (antibody, part only; not given: variable domains and light chain, IgG1, not shown: another chain or arm of the molecule)
Fc: APELLGGPSVFIFPPNPKDTLMITRTPEVTCVVVDVSQENPDVKFNWYMDGVEVRTATTRPKEEQFNSTYRVVSVLRIDHQDWLSGKEFKCKVNNQALPQPIERTITKTKGRSQEPQVYVLAPHPDELSKSKVSVTCLVKDFYPPEINIEWQSNGQPELETKYSTTQAQQDSDGSYFLYSKLSVDRNRWQQGTTFTCGVMHEALHNHYTQKNVSKNPGK
B20: Equine Y436H (antibody, part only; not given: variable domains and light chain, IgG1, not shown: another chain or arm of the molecule)
Fc: APELLGGPSVFIFPPNPKDTLMITRTPEVTCVVVDVSQENPDVKFNWYMDGVEVRTATTRPKEEQFNSTYRVVSVLRIQHQDWLSGKEFKCKVNNQALPQPIERTITKTKGRSQEPQVYVLAPHPDELSKSKVSVTCLVKDFYPPEINIEWQSNGQPELETKYSTTQAQQDSDGSYFLYSKLSVDRNRWQQGTTFTCGVMHEALHNHHTQKNVSKNPGK

Each binder was assayed against porcine FcRn complex (porcine) (UniProt Q07717) (assay: SPR (Biacore 8K+), pH 5.9, 25 C; FcRn captured by anti-His, IgG as analyte; 1:1 kinetic model).
Chain of porcine FcRn complex (porcine) (main, as listed by the source, chain 1 of 2): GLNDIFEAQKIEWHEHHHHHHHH
Chain of porcine FcRn complex (porcine) (Q07717 other isoform, or with tags, fused parts or gaps, chain 2 of 2): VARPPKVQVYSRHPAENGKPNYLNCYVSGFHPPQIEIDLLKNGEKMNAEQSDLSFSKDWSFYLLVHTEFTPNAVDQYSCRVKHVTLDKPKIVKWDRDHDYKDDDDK
Binder B1 has a Fold increase over wild-type KD of 3.3 fold and a Kd of 96.1 nM. B2 showed a Fold increase over wild-type KD of 3.4 fold and a Kd of 93.6 nM. B3 was tested, and the Fold increase over wild-type KD was 4.1 fold and the Kd was 76.4 nM. Work on B4 yielded a Fold increase over wild-type KD of 3.6 fold and a Kd of 86.9 nM. Binder B5 has a Fold increase over wild-type KD of 9.3 fold and a Kd of 34.1 nM. Binder B6 has a Fold increase over wild-type KD of 3 fold and a Kd of 105 nM. B7 gave a Fold increase over wild-type KD of 40 fold and a Kd of 7.93 nM. In the case of B8, the Fold increase over wild-type KD is reported as 3.3 fold and the Kd is reported as 97.2 nM.

Each binder was assayed against bovine FcRn complex (bovine) (UniProt F6R592) in the same assay as above.
Chain of bovine FcRn complex (bovine) (chain, as listed by the source, chain 1 of 2): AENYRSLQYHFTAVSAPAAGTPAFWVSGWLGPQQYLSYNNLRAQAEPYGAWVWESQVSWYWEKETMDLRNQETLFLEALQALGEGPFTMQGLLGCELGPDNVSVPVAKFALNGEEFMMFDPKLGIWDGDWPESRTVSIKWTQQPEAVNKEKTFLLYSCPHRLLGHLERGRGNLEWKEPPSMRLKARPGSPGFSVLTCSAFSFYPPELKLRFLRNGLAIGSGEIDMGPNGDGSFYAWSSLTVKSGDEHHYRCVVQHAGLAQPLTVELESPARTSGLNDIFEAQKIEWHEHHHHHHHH
Chain of bovine FcRn complex (bovine) (P01888 other isoform, or with tags, fused parts or gaps, chain 2 of 2): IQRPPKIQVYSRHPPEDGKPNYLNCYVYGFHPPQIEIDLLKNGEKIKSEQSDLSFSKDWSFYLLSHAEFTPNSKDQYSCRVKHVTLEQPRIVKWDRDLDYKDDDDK
In the case of B9, the Fold increase over wild-type KD is reported as 1 fold and the Kd is reported as 505 nM. Binder B10 has a Fold increase over wild-type KD of 3.9 fold and a Kd of 129 nM. B11 was tested, and the Fold increase over wild-type KD was 2.8 fold. B12 was tested, and the Fold increase over wild-type KD was 7.1 fold and the Kd was 71.4 nM.

Each binder was assayed against equine FcRn complex (equine) (UniProt F6XZ61) in the same assay as above.
Chain of equine FcRn complex (equine) (chain, as listed by the source, chain 1 of 2): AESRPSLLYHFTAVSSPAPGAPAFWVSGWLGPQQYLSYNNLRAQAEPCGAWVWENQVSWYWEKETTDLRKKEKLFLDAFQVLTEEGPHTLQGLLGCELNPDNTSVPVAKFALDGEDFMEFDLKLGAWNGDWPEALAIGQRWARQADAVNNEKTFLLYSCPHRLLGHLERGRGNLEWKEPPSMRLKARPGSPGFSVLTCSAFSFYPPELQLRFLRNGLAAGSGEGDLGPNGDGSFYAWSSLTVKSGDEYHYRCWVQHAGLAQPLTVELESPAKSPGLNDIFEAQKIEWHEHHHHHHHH
Chain of equine FcRn complex (equine) (P30441 other isoform, or with tags, fused parts or gaps, chain 2 of 2): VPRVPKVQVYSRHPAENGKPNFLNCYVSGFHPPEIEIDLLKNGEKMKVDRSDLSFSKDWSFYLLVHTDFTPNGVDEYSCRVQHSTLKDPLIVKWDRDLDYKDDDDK
B13 showed a Fold increase over wild-type KD of 4 fold and a Kd of 35.7 nM. B14 gave a Fold increase over wild-type KD of 3 fold and a Kd of 48 nM. B15 gave a Fold increase over wild-type KD of 61 fold and a Kd of 2.35 nM. Binder B16 has a Fold increase over wild-type KD of 7.2 fold and a Kd of 20.2 nM. B17 gave a Fold increase over wild-type KD of 2 fold and a Kd of 71.4 nM. B18 showed a Fold increase over wild-type KD of 0.9 fold and a Kd of 151 nM. In the case of B19, the Fold increase over wild-type KD is reported as 1 fold and the Kd is reported as 144 nM. With B20 the Fold increase over wild-type KD was 0.9 fold and the Kd was 156 nM.

— patent publication US20220177549A1
